What was measured:
[1] = test system: HeLa Kyoto; assay: solubility in G1/S (NP-40 vs SDS abundance) (log2 ratio); higher = more soluble; conditions: cell cycle stage: G1/S
[2] = test system: HeLa Kyoto; assay: solubility change mitosis vs G1/S (difference of NP-40 vs SDS log2 ratios) (log2 ratio difference); higher = more soluble in mitosis
[3] = test system: HeLa Kyoto; assay: thermal stability score vs G1/S (z-score of summed log2 fold changes over temperatures); higher = more thermally stable than in G1/S
[4] = test system: HeLa Kyoto; assay: melting temperature (median over replicates), in situ; higher = more thermally stable
[5] = cell cycle stage: early G1 (4.5 h after nocodazole release)
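Wherever melting temperature (median over replicates), in situ is given: HeLa Kyoto cells synchronized by double thymidine or nocodazole block, proteins quantified by TMT10plex mass spectrometry, three independent biological replicates.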
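Wherever solubility change mitosis vs G1/S (difference of NP-40 vs SDS log2 ratios) is given: synchronized HeLa Kyoto cells (double thymidine block for G1/S, nocodazole release for mitosis), protein amounts in NP-40 versus SDS lysates quantified by mass spectrometry, three biological replicates.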
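Wherever solubility in G1/S (NP-40 vs SDS abundance) is given: HeLa Kyoto cells arrested at G1/S by double thymidine block, proteins quantified by TMT10plex mass spectrometry in mild NP-40 versus SDS extracts, three biological replicates.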
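Wherever thermal stability score vs G1/S (z-score of summed log2 fold changes over temperatures) is given: synchronized HeLa Kyoto cells, proteins quantified by TMT10plex mass spectrometry, three biological replicates, mitosis taken 0.5 h after nocodazole release, G1/S directly after double thymidine block.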

“MARSPGRAYALLLLLICFNVGSGLHLQVLSTRNENKLLPKHPHLVRQKRAWITAPVALREGEDLSKKNPIAKIHSDLAEERGLKITYKYTGKGITEPPFGIFVFNKDTGELNVTSILDREETPFFLLTGYALDARGNNVEKPLELRIKVLDINDNEPVFTQDVFVGSVEELSAAHTLVMKINATDADEPNTLNSKISYRIVSLEPAYPPVFYLNKDTGEIYTTSVTLDREEHSSYTLTVEARDGNGEVTDKPVKQAQVQIRILDVNDNIPVVENKVLEGMVEENQVNVEVTRIKVFDADEIGSDNWLANFTFASGNEGGYFHIETDAQTNEGIVTLIKEVDYEEMKNLDFSVIVANKAAFHKSIRSKYKPTPIPIKVKVKNVKEGIHFKSSVISIYVSESMDRSSKGQIIGNFQAFDEDTGLPAHARYVKLEDRDNWISVDSVTSEIKLAKLPDFESRYVQNGTYTVKIVAISEDYPRKTITGTVLINVEDINDNCPTLIEPVQTICHDAEYVNVTAEDLDGHPNSGPFSFSVIDKPPGMAEKWKIARQESTSVLLQQSEKKLGRSEIQFLISDNQGFSCPEKQVLTLTVCECLHGSGCREAQHDSYVGLGPAAIALMILAFLLLLLVPLLLLMCHCGKGAKGFTPIPGTIEMLHPWNNEGAPPEDKVVPSFLPVDQGGSLVGRNGVGGMAKEATMKGSSSASIVKGQHEMSEMDGRWEEHRSLLSGRATQFTGATGAIMTTETTKTARATGASRDMAGAQAAAVALNEEFLRNYFTDKAASYTEEDENHTAKDCLLVYSQEETESLNASIGCCSFIEGELDDRFLDDLGLKFKTLAEVCLGQKIDINKEIEQRQKPATETSMNTASHSLCEQTMVNSENTYSSGSSFPVPKSLQEANAEKVTQEIVTERSVSSRQAQKVATPLPDPMASRNVIATETSYVTGSTMPPTTVILGPSQPQSLIVTERVYAPASTLVDQPYANEGTVVVTERVIQPHGGGSNPLEGTQHLQDVPYVMVRERESFLAPSSGVQPTLAMPNIAVGQNVTVTERVLAPASTLQSSYQIPTENSMTARNTTVSGAGVPGPLPDFGLEESGHSNSTITTSSTRVTKHSTVQHSYS [DSG2]” was tested, and the “solubility in G1/S (log2)” value [1] was -0.504, the “solubility change mitosis (log2)” value [2] was -0.164 and the thermal stability score [3, 5] was -1.15. The thermal stability score ([3]; cell cycle stage: mitosis) was -1.27, the melting temperature ([4]; cell cycle stage: G1/S) was 55.1 °C and the melting temperature ([4]; cell cycle stage: mitosis) was 56 °C.

PROSC was tested, and the “solubility in G1/S (log2)” value [1] was 0.225, the “solubility change mitosis (log2)” value [2] was -0.0262 and the thermal stability score [3, 5] was 1.09. The thermal stability score ([3]; cell cycle stage: mitosis) was 0.951, the melting temperature ([4]; cell cycle stage: G1/S) was 48.8 °C and the melting temperature ([4]; cell cycle stage: mitosis) was 49.7 °C.

“MELCGLGLPRPPMLLALLLATLLAAMLALLTQVALVVQVAEAARAPSVSAKPGPALWPLPLLVKMTPNLLHLAPENFYISHSPNSTAGPSCTLLEEAFRRYHGYIFGFYKWHHEPAEFQAKTQVQQLLVSITLQSECDAFPNISSDESYTLLVKEPVAVLKANRVWGALRGLETFSQLVYQDSYGTFTINESTIIDSPRFSHRGILIDTSRHYLPVKIILKTLDAMAFNKFNVLHWHIVDDQSFPYQSITFPELSNKGSYSLSHVYTPNDVRMVIEYARLRGIRVLPEFDTPGHTLSWGKGQKDLLTPCYSRQNKLDSFGPINPTLNTTYSFLTTFFKEISEVFPDQFIHLGGDEVEFKCWESNPKIQDFMRQKGFGTDFKKLESFYIQKVLDIIATINKGSIVWQEVFDDKAKLAPGTIVEVWKDSAYPEELSRVTASGFPVILSAPWYLDLISYGQDWRKYYKVEPLDFGGTQKQKQLFIGGEACLWGEYVDATNLTPRLWPRASAVGERLWSSKDVRDMDDAYDRLTRHRCRMVERGIAAQPLYAGYCNHENM [HEXB]” was tested, and the “solubility in G1/S (log2)” value [1] was 0.38, the “solubility change mitosis (log2)” value [2] was 0.0247 and the thermal stability score [3, 5] was -1.76. It also gave a thermal stability score ([3]; cell cycle stage: mitosis) of -0.878, a melting temperature ([4]; cell cycle stage: G1/S) of 56.7 °C and a melting temperature ([4]; cell cycle stage: mitosis) of 58 °C.

For ATM, the “solubility in G1/S (log2)” value [1] was -0.339, the “solubility change mitosis (log2)” value [2] was -0.141 and the thermal stability score [3, 5] was 0.333. The thermal stability score ([3]; cell cycle stage: mitosis) was 0.0333, the melting temperature ([4]; cell cycle stage: G1/S) was 51.7 °C and the melting temperature ([4]; cell cycle stage: mitosis) was 51.3 °C.

“MAGKAHRLSAEERDQLLPNLRAVGWNELEGRDAIFKQFHFKDFNRAFGFMTRVALQAEKLDHHPEWFNVYNKVHITLSTHECAGLSERDINLASFIEQVAVSMT [PCBD1]” was tested, and the “solubility in G1/S (log2)” value [1] was 0.0398, the “solubility change mitosis (log2)” value [2] was 0.0567 and the thermal stability score [3, 5] was 1.22. For the same substance, the thermal stability score ([3]; cell cycle stage: mitosis) was -0.726, the melting temperature ([4]; cell cycle stage: G1/S) was 54.6 °C and the melting temperature ([4]; cell cycle stage: mitosis) was 55.6 °C.

“MSLKSERRGIHVDQSDLLCKKGCGYYGNPAWQGFCSKCWREEYHKARQKQIQEDWELAERLQREEEEAFASSQSSQGAQSLTFSKFEEKKTNEKTRKVTTVKKFFSASSRVGSKKEIQEAKAPSPSINRQTSIETDRVSKEFIEFLKTFHKTGQEIYKQTKLFLEGMHYKRDLSIEEQSECAQDFYHNVAERMQTRGKVPPERVEKIMDQIEKYIMTRLYKYVFCPETTDDEKKDLAIQKRIRALRWVTPQMLCVPVNEDIPEVSDMVVKAITDIIEMDSKRVPRDKLACITKCSKHIFNAIKITKNEPASADDFLPTLIYIVLKGNPPRLQSNIQYITRFCNPSRLMTGEDGYYFTNLCCAVAFIEKLDAQSLNLSQEDFDRYMSGQTSPRKQEAESWSPDACLGVKQMYKNLDLLSQLNERQERIMNEAKKLEKDLIDWTDGIAREVQDIVEKYPLEIKPPNQPLAAIDSENVENDKLPPPLQPQVYAG [RABGEF1]” was tested, and the “solubility in G1/S (log2)” value [1] was 0.143, the “solubility change mitosis (log2)” value [2] was -0.0709 and the thermal stability score [3, 5] was 0.899. It also gave a thermal stability score ([3]; cell cycle stage: mitosis) of -2.37, a melting temperature ([4]; cell cycle stage: G1/S) of 52.3 °C and a melting temperature ([4]; cell cycle stage: mitosis) of 50.3 °C.
